Tests used:
MSCs [1] = test: Cell migration via haptotaxis; type: cell-based, Human; details: 5 days post-seeding
Experimental: Polydimethylsiloxane (PDMS) was casted into 3D printed molds to create a circular shape with three rectangular cutouts, in which the middle rectangle was equidistant from the flanking rectangles. The PDMS stencil was placed inside a well plate and pressed tightly against the well surface to create watertight seal. The top and bottom rectangular chambers were filled with tropoelastin solution (20 μg/mL) or PBS, respectively, and air dried overnight. MSCs (1.2×10^6 cells/cm^2) were seeded into the middle chamber and allowed to attach for at least 2 hrs. The PDMS stencil was removed, and the culture well was covered with normal media. For up to 5 days, cells were stained daily with NucBlue™ Live ReadyProbes™ Reagent (Life Technologies) for 15 min, washed once with PBS, covered with normal media, and imaged under fluorescence at 360/460 nm using a Nikon Ti-E Live Cell Microscope. Cell migration into regions defined by tropoelastin or PBS coating was quantified via relative fluorescent areas using ImageJ software.

[2] = test system: Human bone marrow-derived MSCs; test: MSC proliferation (crystal violet cell abundance); type: cell-based
Experimental: Human bone marrow-derived MSCs obtained from American Type Culture Collection (ATCC) were cultured in normal media, which consists of Alpha-Minimum Essential Medium (α-MEM) (Lonza) with 10% (v/v) FBS (Life Technologies) and 2.4 mM L-glutamine (Lonza), at 37° C. in a humidified normoxic incubator up to a maximum of 10 population doublings. Where indicated, the normal media was supplemented with 15 ng/mL IGF-1 (Life Technologies) and/or […] bFGF (Life Technologies), equivalent to the growth factor concentrations in the ATCC-recommended media. Cells were passaged once they reach 70-80% confluence.
Where indicated, tissue culture plastic wells were coated with 20 μg/mL recombinant human tropoelastin (Elastagen) or 2 μg/mL fibronectin (Sigma-Aldrich®) in PBS (10 mM phosphate, 150 mM NaCl, pH 7.4) at 4° C. overnight. The protein solution was removed, and wells were washed three times with PBS to remove unbound protein prior to cell seeding.
[…] To prevent protein adhesion on the tissue culture substrate, wells were pre-incubated with normal media for 5 hours to enable surface blocking by serum proteins prior to cell seeding in supplemented media.
Sub-confluent flasks of MSCs were treated with 0.05% (v/v) trypsin-EDTA (Sigma-Aldrich®) at 37° C. for 5 min to lift off adherent cells from the culture vessel. Trypsin was neutralized with two volumes of serum-containing growth media. Cells were centrifuged at 270 g for 5 min and resuspended in the required media. Cells were seeded at a density of 5000 cells/cm^2 on bare or protein-coated tissue culture plastic wells, in normal or supplemented media. Media was changed every 2 days. After specific time points, cells were fixed with 3% (v/v) formaldehyde at room temperature for 20 min, washed with PBS, then stained with 0.1% (w/v) crystal violet in 0.2 M MES buffer for 1 hour. Excess stain was washed off four times with reverse osmosis water. The retained stain was solubilized with 10% (v/v) acetic acid and sample absorbance values indicative of cell abundance were read at 570 nm. Sample absorbance values were subtracted by baseline values (corresponding to cell numbers in serum-free media, or cell numbers on day 1 post-seeding) and expressed as a fraction of the highest absorbance among all samples on day 7 post-seeding.

MSCs [3] = test: MSC adipogenic differentiation (intracellular lipid, Oil Red O); type: cell-based, Human
Experimental: (§1) MSCs were grown in various media formulations and on bare or protein-coated tissue culture wells for 7 days. The expanded cells were harvested, re-seeded on TCP, and differentiated into the adipogenic, osteogenic and chondrogenic lineages using the hMSC Adipogenic BulletKit®, hMSC Osteogenic BulletKit®, and hMSC Chondrogenic BulletKit® (Lonza), respectively, following the manufacturer's instructions.
To confirm adipogenesis, cells that had been induced for 25 days were washed with PBS, fixed with 10% (v/v) formalin for 30 min, then washed with water. Cells were incubated with 60% (v/v) isopropanol for 5 min and stained for intracellular lipid droplets with 1.8 mg/mL Oil Red O in isopropanol for 20 min. Excess stain was removed with 5 washes of water.

[4] = target: αv integrins (all αv subunit integrins) on human MSCs (human, UniProt P06756 31-1048); test: cell-based or functional assay
αv integrins (all αv subunit integrins) on human MSCs, sequence (P06756 31-1048, form in doubt): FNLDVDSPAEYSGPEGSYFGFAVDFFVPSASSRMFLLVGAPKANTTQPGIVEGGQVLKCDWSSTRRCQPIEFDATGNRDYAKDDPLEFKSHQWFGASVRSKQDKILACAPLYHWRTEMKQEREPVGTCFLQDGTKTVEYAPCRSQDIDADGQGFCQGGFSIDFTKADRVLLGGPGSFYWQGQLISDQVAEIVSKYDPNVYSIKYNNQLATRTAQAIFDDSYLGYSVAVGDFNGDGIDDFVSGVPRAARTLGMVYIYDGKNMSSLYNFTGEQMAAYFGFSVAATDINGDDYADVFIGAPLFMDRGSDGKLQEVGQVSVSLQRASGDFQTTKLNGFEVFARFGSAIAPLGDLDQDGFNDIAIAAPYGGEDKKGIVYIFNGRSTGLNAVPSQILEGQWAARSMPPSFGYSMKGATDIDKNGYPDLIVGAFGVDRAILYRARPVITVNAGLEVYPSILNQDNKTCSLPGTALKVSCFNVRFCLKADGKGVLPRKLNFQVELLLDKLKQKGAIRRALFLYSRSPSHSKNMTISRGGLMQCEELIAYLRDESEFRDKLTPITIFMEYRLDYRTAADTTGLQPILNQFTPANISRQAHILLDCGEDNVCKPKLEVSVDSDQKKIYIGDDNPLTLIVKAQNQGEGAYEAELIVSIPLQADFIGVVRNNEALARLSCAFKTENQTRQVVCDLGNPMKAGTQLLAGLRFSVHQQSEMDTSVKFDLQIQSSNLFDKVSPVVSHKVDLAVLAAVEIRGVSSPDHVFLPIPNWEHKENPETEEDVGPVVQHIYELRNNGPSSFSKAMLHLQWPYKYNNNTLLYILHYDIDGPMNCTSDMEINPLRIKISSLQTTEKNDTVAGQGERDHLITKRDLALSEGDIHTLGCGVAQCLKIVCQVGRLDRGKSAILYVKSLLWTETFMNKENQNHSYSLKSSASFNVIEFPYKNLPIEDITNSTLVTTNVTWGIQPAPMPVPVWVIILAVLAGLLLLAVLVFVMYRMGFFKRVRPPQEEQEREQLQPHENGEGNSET

MSCs [5] = test: Flow cytometry of MSC surface marker expression; type: cell-based, Human
Experimental: MSCs cultured for 5 or 7 days in various media formulations and on bare or protein-coated tissue culture wells were trypsinised and pelleted. The cell pellets were washed with 0.22 μm filtered FACS buffer (5% v/v FBS in PBS) and re-centrifuged at 270 g for 5 min. The cells were resuspended in FACS buffer to a concentration of 100,000 cells in 100 μL total volume, and probed for MSC marker expression using the Human Mesenchymal Stem Cell Verification Flow Kit (R&D Systems®). Isotype and unstained control samples were prepared using MSCs cultured in standard growth media on tissue culture plastic. Cells were analyzed using a BD™ Biosciences LSR II Flow Cytometer System. Singlet cells were determined by their forward scatter-to-side scatter and scatter height-to-width ratios, while viable cells were identified by exclusion of 1:20 propidium iodide. Only singlet, viable cells were analyzed for marker expression.

MSCs [6] = test: MSC osteogenic differentiation (mineralized calcium, Alizarin Red S); type: cell-based, Human
Experimental: as §1
To confirm osteogenesis, cells that had been induced for 14 days were fixed and stained for mineralized calcium deposits with Alizarin Red S, as previously described. Cells from the adipogenic and osteogenic experiments were imaged with a Zeiss Axio Vert.A1 microscope using an AxioCam 105 colour camera.

[7] = tropoelastin substrate, normal media
[8] = tropoelastin substrate, unsupplemented 7% FBS media, 7 days
[9] = tropoelastin addition during differentiation
[10] = tropoelastin during both expansion and differentiation stages
[11] = tropoelastin-coated surfaces, all media formulations, 5 days post-seeding

- focal adhesions per cell (vinculin staining) of MSCs on tropoelastin compared to those on BSA [4]: 1.5 fold
B1: recombinant human tropoelastin (Elastagen) (ligand, UniProt P15502-2 27-724, looked up)
chain: GGVPGAIPGGVPGGVFYPGAGLGALGGGALGPGGKPLKPVPGGLAGAGLGAGLGAFPAVTFPGALVPGGVADAAAAYKAAKAGAGLGGVPGVGGLGVSAGAVVPQPGAGVKPGKVPGVGLPGVYPGGVLPGARFPGVGVLPGVPTGAGVKPKAPGVGGAFAGIPGVGPFGGPQPGVPLGYPIKAPKLPGGYGLPYTTGKLPYGYGPGGVAGAAGKAGYPTGTGVGPQAAAAAAAKAAAKFGAGAAGVLPGVGGAGVPGVPGAIPGIGGIAGVGTPAAAAAAAAAAKAAKYGAAAGLVPGGPGFGPGVVGVPGAGVPGVGVPGAGIPVVPGAGIPGAAVPGVVSPEAAAKAAAKAAKYGARPGVGVGGIPTYGVGAGGFPGFGVGVGGIPGVAGVPGVGGVPGVGGVPGVGISPEAQAAAAAKAAKYGVGTPAAAAAKAAAKAAQFGLVPGVGVAPGVGVAPGVGVAPGVGLAPGVGVAPGVGVAPGVGVAPGIGPGGVAAAAKSAAKVAAKAQLRAAAGLGAGIPGLGVGVGVPGLGVGAGVPGLGVGAGVPGFGAVPGALAAAKAAKYGAAVPGVLGGLGALGGVGIPGGVVGAGPAAAAAAAKAAAKAAQFGLVGAAGLGGLGVGGLGVPGVGGLGGIPPAAAAKAAKYGAAGLGGVLGGAGQFPLGGVAARPGFGLSPIFPGGACLGKACGRKRK
- more cells migrated to the tropoelastin-coated region compared to the control (MSCs [1]): 45±8%
- increase in cell proliferation compared to normal media or media with IGF-1 ([2]; 1 μg/mL in solution, 7 days): 18±5%
- increase in cell proliferation compared to normal media or media with IGF-1 ([2]; 20 μg/mL in solution, 7 days): 69±7%
- improved MSC proliferation over substrate-bound tropoelastin ([2]; 20 μg/mL in solution, 7 days post-seeding): 80±8%
- increase in MSC proliferation by substrate-bound tropoelastin over TCP ([2]; 7% FBS media with IGF-1, 7 days): 49±1%
- increase in MSC proliferation by substrate-bound tropoelastin over TCP ([2]; 7% FBS media with bFGF, 7 days): 40±3%
- increase in MSC proliferation by substrate-bound tropoelastin over TCP ([2]; 7% FBS media with both growth factors, 7 days): 29±3%
- increase in MSC proliferation by substrate-bound tropoelastin over TCP ([2]; 7% FBS, unsupplemented media, 7 days): 97±19%
- tropoelastin-mediated proliferative increase over bare TCP ([2]; 10% FBS media with IGF-1, 7 days): 41±1%
- tropoelastin-mediated proliferative increase over bare TCP ([2]; 10% FBS media with IGF-1 and bFGF, 7 days): 16±3%
- tropoelastin-mediated proliferative increase over bare TCP ([2]; 10% FBS media with bFGF, 7 days): 16±2%
- serum reduction at which cell expansion remained unaffected ([2]; 7 days post-seeding, substrate-bound tropoelastin without growth factors, or IGF-1 and bFGF in media on TCP): ≤ 40%
- serum reduction at which MSC numbers significantly decreased ([2]; coated surface, until 3 days post-seeding): 80%
- increase in cell numbers on tropoelastin-coated TCP over bare TCP ([2]; normal 10% (v/v) serum media, 7 days): 39±3%
- MSC propagation relative to bFGF ([2]; soluble 5 μg/mL, until 7 days post-seeding): comparable to bFGF
- MSC expansion relative to media containing both IGF-1 and bFGF ([2]; soluble 20 μg/mL, full serum media): equivalent to that in media containing both growth factors
- more potent than bFGF for MSC propagation ([2]; soluble 20 μg/mL, until 7 days post-seeding): 18±5%
- MSC expansion surpassing bFGF ([2]; soluble, at and above 1 μg/mL, 3 days post-seeding): up to 74±2%
- improved MSC proliferation compared to IGF-1 and bFGF in tandem ([2]; substrate-bound tropoelastin, 40% decrease in serum (6% FBS), 7 days): 23±3%
- serum reduction tolerated without deleterious effects to proliferation ([2]; surface-bound tropoelastin with growth factors in media, after 5 days post-seeding): ≤ 20%
- serum reduction allowed ([2]; surface-bound tropoelastin with growth factors in media, until 5 days post-seeding): 40%
- proliferation compared to cells on TCP in media with bFGF [2, 7]: similarly
- proliferation more than cells on TCP in media with IGF-1 [2, 7]: 36±3%
- decreased expansion compared to cells on TCP in media containing both IGF-1 and bFGF ([2]; tropoelastin substrate, normal media, no additional factors): 14±2%
- abundance compared to cells on TCP in media with both growth factors [2, 8]: equivalent in abundance
- greater expansion relative to cells on TCP in media with IGF-1 [2, 8]: 59±15%
- greater expansion relative to cells on TCP in media with bFGF [2, 8]: 37±13%
- intracellular lipid formation (MSCs [3]; 20 μg/ml TE during both expansion and induction stages): increase in intracellular lipid formation
- intracellular lipid formation compared to culture lacking TE (MSCs [3]; induced in the presence of TE): increase in intracellular lipid formation
- increased adipogenesis (MSCs [3]; tropoelastin addition during MSC expansion): 33%
- increased adipogenesis (MSCs [3]; [9]): 19%
- promoted adipogenesis (MSCs [3]; [10]): 69-85%
- MSC marker expression profile (MSCs [5]; 20 μg/mL soluble in media): displayed characteristic CD90+, CD105+, CD73+ and lineage negative expression profiles
- MSC phenotype (marker expression) (MSCs [5]; substrate-bound, replacing one or both growth factors, full or reduced serum media): fully retained
- cells expressing positive MSC markers CD90, CD105 and CD73 (MSCs [5]; [11]): more than 95%
- cells lacking hematopoietic markers CD34, CD45, CD11b, CD79a and HLA-DR (MSCs [5]; [11]): more than 98%
- osteogenesis versus timing of exposure during expansion (MSCs [6]; TE days 2-5, 3-6 or 4-7 of 7-day proliferation period): maximum effect associated with tropoelastin exposure in the later stages of expansion
- increased osteogenesis compared to cells grown on TCP (MSCs [6]; cells grown on coating): 113%
- mineralized calcium (MSCs [6]; cells induced and exposed to TE): increase in mineralized calcium concentrations
- MSC osteogenesis with tropoelastin added to hyaluronic acid (MSCs [6]; different molecular weight hyaluronic acid formulations): promoted MSC osteogenesis
- increased osteogenesis compared to cells exposed from days 2-5 (MSCs [6]; exposed days 4-7 of seven-day expansion): 24%
- osteogenesis dose response (MSCs [6]; grown in at least 2 μg/mL TE and induced in 20 μg/mL TE): Maximum osteogenesis
- improved osteogenesis (MSCs [6]; [9]): 55%
- increased osteogenesis (MSCs [6]; [10]): up to 131%
- improved osteogenic potential (MSCs [6]; tropoelastin present during MSC expansion): 42%

Source: patent publication US20190275087A1, “EXPANSION AND DIFFERENTIATION OF STEM CELLS” (Allergan Pharmaceuticals International Limited, priority 2018, published 2019)
